B1: human basigin, entire ectodomain (receptor)
chain: EPGTVFTTVEDLGSKILLTCSLNDSATEVTGHRWLKGGVVLKEDALPGQKTEFKVDSDDQWGEYSCVFLPEPMGTANIQLHGPPRVKAVKSSEHINEGETAMLVCKSESVPPVTDWAWYKITDSEDKALMNGSESRFFVSSSQGRSELHIENLNMEADPGQYRCNGTSSKGSDQAIITLRVRSHLAAL
modifications: enzymatically monobiotinylated
notes: also called HsBSG; BSG; source: HEK293E, transient transfection, secreted, enzymatically monobiotinylated

Columns and labels:
Experiment in all cases: SPR
Settings in all cases: both partners purified
[1] = biological target: T1, P. falciparum RH5 (reticulocyte-binding protein homologue 5) (P. falciparum (3D7), UniProt Q8IFM5 25-526)
T1 sequence: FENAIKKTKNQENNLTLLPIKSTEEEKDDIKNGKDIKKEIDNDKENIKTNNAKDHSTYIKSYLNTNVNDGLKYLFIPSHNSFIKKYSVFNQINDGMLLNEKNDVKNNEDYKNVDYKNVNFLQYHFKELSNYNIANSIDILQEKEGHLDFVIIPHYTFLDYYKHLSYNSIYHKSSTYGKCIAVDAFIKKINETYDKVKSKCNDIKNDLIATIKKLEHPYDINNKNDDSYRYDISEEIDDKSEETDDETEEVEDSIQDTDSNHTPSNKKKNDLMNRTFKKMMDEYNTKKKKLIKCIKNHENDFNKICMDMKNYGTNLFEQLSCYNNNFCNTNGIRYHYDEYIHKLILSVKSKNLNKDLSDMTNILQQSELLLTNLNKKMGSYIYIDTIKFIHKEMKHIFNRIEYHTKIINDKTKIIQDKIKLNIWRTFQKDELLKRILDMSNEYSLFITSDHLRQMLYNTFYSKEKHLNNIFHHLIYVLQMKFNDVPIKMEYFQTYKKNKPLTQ

P. reichenowi RH5 = P. reichenowi RH5 (P. reichenowi, UniProt B4X6H6 1-535)
P. gaboni RH5 = P. gaboni RH5 (P. gaboni)
[2] = biological target: B1
[3] = biological target: T2, gorilla basigin, entire ectodomain (gorilla, enzymatically monobiotinylated)
T2 construct: also called gorilla BSG; source: HEK293E, transient transfection, secreted, enzymatically monobiotinylated

[4] = biological target: T3, P. falciparum P113, biotinylated bait (P. falciparum, UniProt Q8ILP3 23-945, biotin (enzymatic monobiotinylation; site not stated))
T3 construct: source: HEK293E, transient transfection, secreted; enzymatically monobiotinylated bait
T3 sequence: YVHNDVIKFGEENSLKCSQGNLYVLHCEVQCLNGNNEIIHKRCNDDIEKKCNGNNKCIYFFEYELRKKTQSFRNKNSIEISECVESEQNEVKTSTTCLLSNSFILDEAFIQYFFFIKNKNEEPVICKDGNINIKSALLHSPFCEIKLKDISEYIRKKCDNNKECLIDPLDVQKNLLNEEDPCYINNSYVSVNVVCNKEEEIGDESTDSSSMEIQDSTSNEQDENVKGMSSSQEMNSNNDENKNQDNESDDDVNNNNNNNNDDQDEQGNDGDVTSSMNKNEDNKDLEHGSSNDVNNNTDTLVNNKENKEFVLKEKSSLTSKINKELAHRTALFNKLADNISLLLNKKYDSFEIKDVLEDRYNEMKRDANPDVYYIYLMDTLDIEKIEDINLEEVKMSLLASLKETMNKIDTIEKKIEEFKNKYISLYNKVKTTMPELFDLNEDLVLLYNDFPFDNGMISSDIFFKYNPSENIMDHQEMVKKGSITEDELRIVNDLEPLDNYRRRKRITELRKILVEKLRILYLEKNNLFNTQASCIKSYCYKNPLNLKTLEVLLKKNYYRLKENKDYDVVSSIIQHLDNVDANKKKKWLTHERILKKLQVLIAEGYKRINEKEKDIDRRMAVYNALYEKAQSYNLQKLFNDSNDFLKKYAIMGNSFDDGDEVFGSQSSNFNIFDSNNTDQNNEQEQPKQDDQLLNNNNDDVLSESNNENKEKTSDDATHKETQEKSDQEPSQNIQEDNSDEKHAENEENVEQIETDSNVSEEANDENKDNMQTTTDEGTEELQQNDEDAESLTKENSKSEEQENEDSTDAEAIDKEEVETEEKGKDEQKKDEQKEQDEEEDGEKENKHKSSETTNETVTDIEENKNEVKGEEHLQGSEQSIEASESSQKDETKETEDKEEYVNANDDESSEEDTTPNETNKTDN

**Q.** With B1 as the binder, how does the Kd [1] read?
**A.** 1500 ± 200 nM

B2: chimpanzee basigin, entire ectodomain (receptor)
chain: ASGAAGTVFTTVEDLGSKILLTCYMNDSATEVTGHRWLKGGVVLEEDALPGQKTEFKVDSDDQWGEYSCVFLPEPMGTANIQLHGPPRVKAVKSSEHINEGETAVLVCKSESVPPVTDWAWYKITDSGDKALMNGSESRFFVSSLQGRSELHIENLNMEADPGQYRCNGNSSEGSDQAVITLRVRSHLA
modifications: enzymatically monobiotinylated
**Q.** How did the Kd (P. reichenowi RH5) turn out when B2 was run?
**A.** 4300 ± 500 nM

**Q.** And the Kd (P. gaboni RH5)?
**A.** 2900 ± 100 nM

B3: introgressed ancestral RH5 (reticulocyte-binding protein homologue 5) (ligand)
chain: FENAIKKTKNQENNLTLLPIKSTEEEKDDIKNGKDIKKEIDNDKENIKTNNAKDHSTYIKSYLNTNVNDGLKYLFIPSHNSFIKKYSVFNQINDGMLLNEKNDVKNNEDYKNVDYKNVNFLQYDFKELSNYNIANSIDILQEKEGHLDFVIIPHYTFLDYYKHLSYNSIYHKYSTHGKYIAVDAFIKKINERYDQVKSKCNDIKNDLIATIKKLEHPYDINNKNDDSYRYDISEEIDDKSEETDDETEEVEDSIQDTDSNHTPSNKKKNDLMNRTFKKMMDEYNTKKKKLIKCIKNHENDFNKICMDMKNYGTNLFEQLSCYNNNFCNTNGIRYHYDEYIHKLILSVKSKNLNKDLSDMTNILQQSELLLTNLNKKMGSYIYIDTIKFIHKEMKHIFNRIEYHTKIINDKTKIIQDKIKLNIWRTFQKDELLKRILDMSNEYSLFITSDHLRQMLYNTFYSKEKHLNNIFHHLIYVLQMKFNDVPIKMEYFQTYKKNKPLTQ
**Q.** How did the Kd [2] turn out when B3 was run?
**A.** 2300 ± 100 nM

**Q.** What about the Kd [3] of the same binder?
**A.** 3000 ± 300 nM

B4: P. falciparum RH5 (reticulocyte-binding protein homologue 5) (ligand)
chain: FENAIKKTKNQENNLTLLPIKSTEEEKDDIKNGKDIKKEIDNDKENIKTNNAKDHSTYIKSYLNTNVNDGLKYLFIPSHNSFIKKYSVFNQINDGMLLNEKNDVKNNEDYKNVDYKNVNFLQYHFKELSNYNIANSIDILQEKEGHLDFVIIPHYTFLDYYKHLSYNSIYHKSSTYGKCIAVDAFIKKINETYDKVKSKCNDIKNDLIATIKKLEHPYDINNKNDDSYRYDISEEIDDKSEETDDETEEVEDSIQDTDSNHTPSNKKKNDLMNRTFKKMMDEYNTKKKKLIKCIKNHENDFNKICMDMKNYGTNLFEQLSCYNNNFCNTNGIRYHYDEYIHKLILSVKSKNLNKDLSDMTNILQQSELLLTNLNKKMGSYIYIDTIKFIHKEMKHIFNRIEYHTKIINDKTKIIQDKIKLNIWRTFQKDELLKRILDMSNEYSLFITSDHLRQMLYNTFYSKEKHLNNIFHHLIYVLQMKFNDVPIKMEYFQTYKKNKPLTQ
**Q.** Does B4 bind [4]?
**A.** binds
